Experimental data reported in patent US20120282269A1 (Boehringer Ingelheim, published 2012).
Where “and” joins values, the source holds several entries; their conditions need not be identical. Equal values may be shown once.

T1: recombinant human IL-23 (human, UniProt P29460 23-328)
T1 sequence 1: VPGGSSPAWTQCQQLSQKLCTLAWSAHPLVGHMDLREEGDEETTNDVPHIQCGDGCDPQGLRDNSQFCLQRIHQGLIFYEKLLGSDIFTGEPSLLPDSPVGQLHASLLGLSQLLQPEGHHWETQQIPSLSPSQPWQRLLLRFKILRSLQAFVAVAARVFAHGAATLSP
T1 sequence 2: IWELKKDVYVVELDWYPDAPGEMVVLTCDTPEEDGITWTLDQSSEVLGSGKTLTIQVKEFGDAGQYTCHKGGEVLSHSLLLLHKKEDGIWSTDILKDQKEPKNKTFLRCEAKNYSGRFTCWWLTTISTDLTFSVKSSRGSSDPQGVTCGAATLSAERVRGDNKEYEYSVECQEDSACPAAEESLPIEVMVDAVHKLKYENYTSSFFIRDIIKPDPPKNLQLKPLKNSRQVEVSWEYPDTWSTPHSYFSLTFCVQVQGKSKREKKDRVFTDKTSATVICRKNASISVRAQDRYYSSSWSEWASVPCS

T2: natural human IL-23 from activated THP-1 cells (human, UniProt P29460 23-328)
T2 sequence 1: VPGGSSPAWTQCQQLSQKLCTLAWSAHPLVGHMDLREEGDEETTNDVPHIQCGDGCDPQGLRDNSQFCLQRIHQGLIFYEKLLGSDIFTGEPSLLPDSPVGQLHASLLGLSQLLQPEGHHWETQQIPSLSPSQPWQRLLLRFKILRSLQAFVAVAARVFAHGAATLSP
T2 sequence 2: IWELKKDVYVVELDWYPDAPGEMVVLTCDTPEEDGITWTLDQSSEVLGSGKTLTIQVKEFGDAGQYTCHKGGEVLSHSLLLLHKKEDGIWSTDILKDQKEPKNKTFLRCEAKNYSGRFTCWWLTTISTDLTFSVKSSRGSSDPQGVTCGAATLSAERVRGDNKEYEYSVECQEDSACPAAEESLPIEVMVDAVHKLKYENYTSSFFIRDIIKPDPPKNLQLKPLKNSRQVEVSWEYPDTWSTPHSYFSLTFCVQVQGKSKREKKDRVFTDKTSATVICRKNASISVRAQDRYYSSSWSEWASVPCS


Assays:
recombinant human IL-23 = biological target: T1, recombinant human IL-23; test: cell-based or functional assay
[1] = biological target: T2, natural human IL-23 from activated …; test: cell-based or functional assay

IC50, inhibition of IL-17 production from IL-23 stimulated mouse splenocytes (recombinant human IL-23) | IC50, inhibition of IL-17 production from IL-23 stimulated mouse splenocytes [1] | Binder
1.41 nM | – | 73H10 (antibody, V domains shown) VH: EVQLQQSGPELVKPGASVKMSCKASGYTFTRYVMHWVKQKPGQGLEWIGYINPYNDVTKYNEKFKGKATLTSDRSSSTAYMKLSSLTSEDSAVYYCARNWDVPYWGQGTLITVSA VL: DIQMTQSPVFLSASVGETVTITCRASENIDSYLAWYQQKQGKSPQLLVFAARNLADGVPSRFSGSGSGTQYSLKINRMQSEDVARYYCQHYYSTPFTFGSGTKLEIE
1.35 nM | – | 74H3 (antibody, V domains shown) VH: EVQLQQSGPELVKPGASVKMSCKASGYTFTRYLMHWVKQKPGQGLEWIGYINPYNDGTKYNERFKGKATLTSDKSSSTAYMELSSLTSEDSAVYYCARNWDVPYWGQGTLVTVSA VL: DIQMTQSPASLSASVGETVIFTCRASENIDSYLAWYQQKQGKSPQLLVYAATNLADGVPSRFSGSGSGTQYSLKINSLQSEDVARYYCLHYYSTPFTFGSGTELEIK
0.013 nM | – | Mouse antibody 6B8 (antibody, V domains shown) VH: QVQLQQSDAELVKPGTSVKTSCKISGNTFTDQTIHWMKQRPEQGLEWIGYIYPRDDSPKYNENFKGKATLTADKSSSTAYMQLNSLTSEDSAVYFCAIPDRSGYAWFIYWGQGTLVTVSS VL: DIVMTQSHKFLSTSVGDRVTITCKASRDVAIAVAWYQQKPGQSPKLLLFWASTRHTGVPDRFTGSGSRTDFTLTISNVQSEDLADYFCHQYSSYPFTFGSGTKLEIK
0.235 nM | 5 nM | 27G8 (antibody, V domains shown) VH: QVQLQQSDAELVKPGASVKISCKVSGYTFTDHTIHWMKQRPEQGLEWIGYIYPRDGYPKFNEKFKGKATLTADKSSSTAYMQLNSLTSEDSAVYFCARRPPYYAMDYWGQGTSVAVSS VL: DIVLTQSPASLAVSLGQRATISCRASKSVSTSGYSYIHWYQQKPGQPPKFLIYLASNLDSGVPARFSGSGSGTDFTLNIHPVEEEDAATYYCQHSRELPYTFGGGTKLEIK
0.027 nM | – | 26F7 (antibody, V domains shown) VH: EVQLQQSGPELVKPGASVKISCKASGYTFTDYYMNWVRQSHGESLEWIGDFNHNNDVITYNPKFKGKVTLTVEKSSTTAYMELRSLSSEDSAVYYCARGLRGYYAMDYWGQGTSVTVSS VL: DIVLTQSPASLAVSLGQRATISCRASKSVRFSDYFYMHWYQQKPGQPPKLLIYLASNLESGVPARFSGSGSGTDFTLNIHPVEEEDAATYYCQNSRELPYTFGGGTKLEIK
– | 2.34 nM and 1.91 nM and 1.6 nM | 2D1 (antibody, V domains shown) VH: QVQLKESGPGLVAPSQSLSITCTVSGFSLTTYAISWVRQSPGKGLEWLGVIWTGGGTKYNSALKSRLSISKDNSKSQVFLKMNSLQTDDTARYYCARKDYNYGGAMDYWGQGTSVTVSS VL: DIVLTQSPGSLAVSLGQRATISCRTSESVYSYGQNFIHWYQQKPGQPPKLLIYRASNLESGIPARFSGSGSRTDFTLTMNPVEADDVATYYCQQTNEDPYTFGGGTKLEIR
0.059 nM | 0.281 nM and 0.138 nM | 9D12 (antibody, V domains shown) VH: QVQLKESGPVLVAPSQSLSITCTVSGFSLNNFAISWVRQPPGKGLEWLGAIWTGGGTNYNSALKSRLSISKDNSKSQVFLKMNSLQTDDTARYYCVRKDYSYGGAMDYWGQGTSVTVSS VL: DIALTQSPASLAVSLGQRATISCRASETINFYGTSFMHWYQQKPGQSPKLLIYRASNLESGIPARFSGSGSRTDFTLTINPVEADDVATYYCQQTNEDPYTFGGGTKLEIK
0.471 nM | – | 18C4 (antibody, V domains shown) VH: EVQLQQSGPEVVKPGASVKMSCKASGYTFTSSVIHWVKQKAGQGLEWIGYINPYNDGTKYNEKFKGKATLTSDRSSSTAYMELSSLTSEDSAVYYCTRRLDEAYWGQGTLVTVSA VL: DIVMTQSPATLSVTPGDRVSLSCRASQSISEYLHWYQQKSHESPRLLIKYASQSISGIPSRFSGSGSGSDFTLSINSVEPEDVGVYYCQNGHSFPFTFGSGTKLEIK
0.1 nM | – | Chimeric 22E2 (antibody, V domains shown) VH: EVQLQQSGPELVKPGASVKMSCKASGYTFTSSIIHWVKQRPGQGLEWIGYINPYDDVTKYNEKFKGKATLTSDKSSSTAYMELSSLTSEDSAVYYCARRWDESYWGQGTLVTVSA VL: DIVMTQSPATLSVTPGDRVSLSCRASQSISVYLHWYQQKSPESPRLLIKYASQSISGIPSRFSGSGSGSDFTLSINSVEPEDVGVYYCQNGHSFPFTFGSGTKLEIK
0.96 nM | 2 nM | 31H9 (antibody, V domains shown) VH: EVQLQQSGPELVKPGASVKMSCKASGYTFTRYLMHWVKQKPGQGLEWIGYINPYNDGTNYNEKFKGKATLTSDKSSSTAYMELSSLTSEDSAVYYCSLNWDYAYWGQGTLVTVSA VL: DIVMTQSPATLSVTPGDRVSLSCRASQSISDYLHWYQQKSHESPRLLIKYASQSISGIPSRFSGSGSGSDFTLSINSVEPEDVGVYYCQNGHSFPYTFGGGTKLEIK
0.022 nM and 0.037 nM | 0.085 nM and 0.031 nM | 24A5 (antibody, V domains shown) VH: EVQLQQSGPELVKPGASVKMSCKASGYTFTTSIMHWVKQKPGQGLEWIGYINPYDDVTKYNEKFKGKATLTSDKSSSTAYMELSSLTSEDSAVYYCVRRWDEAYWGQGTLVTVSA VL: DIVMTQSPATLSVTPGNRVSLSCRASQSISDYLHWYQQKSHESPRLLIKYASQSISGIPSRFSGSGSGSNFTLSINSVEPEDVGVYYCQNGHSFPFTFGSGTKLEIK
– | 0.009 nM and 0.013 nM | 18E5 (antibody, V domains shown) VH: EVQLQQSGPELVKPGAAVKMSCKASGYTFTRYLIHWVKQKPGQGLEWIGYINPYNDGTKYNEKFKGKATLTSDKSSSTAYMELSSLTSEDSAVYYCTSNWDLDYWGQGTTLTVSS VL: DIVMTQSPATLSVTPGDRVSLSCRASQSISDYLYWYQQKSHESPRLLIKFASQSISGIPSRFTGSGSGSDFTLSIDSVEPDDVGVFFCQNGHSFPFTFGGGTKLEIK
0.234 nM | – | 18D3 (antibody, V domains shown) VH: EVQLQQSGPELVKPGASVKMSCKASGYTFTRYLIHWVKQKPGQGLEWIGYINPYNDGTKYNEKFKGKATLTSDKSSSTAYMELSSLTSEDSAVYYCTSNWDLDYWGQGTTLTVSS VL: DIVMTQSPATLSVTPGDRVSLSCRASQSISDYLYWYQQKSHESPRLLIKFASQSISGIPSRFTGSGSGSDFTLSIDSVEPDDVGVFFCQNGHSFPFTFGGGTKLEIK
– | 0.438 nM and 0.561 nM | 20E8 (antibody, V domains shown) VH: EVQLQQSGPELVKPGASVKMSCKASGYTFTSSVMHWVKQKAGQGLEWIGYINPYNDGTQYNEKFKGKATLTSDKFSSTAYMELSSLTSEDSAVYYCTRRLDEAYWGQGTLVTVSA VL: DIVMTQSPATLSVTPGDRVSLSCRASQSISEYLHWYQQKSHESPRLLIKYASQSISGIPSRFSGSGSGSDFTLSINSVEPEDVGVYYCQNGHSFPFTFGSGTKLEIK
0.061 nM and 0.13 nM | – | 22E2 (antibody, V domains shown) VH: EVQLQQSGPELVKPGASVKMSCKASGYTFTSSIIHWVKQRPGQGLEWIGYINPYDDVTKYNEKFKGKATLTSDKSSSTAYMELSSLTSEDSAVYYCARRWDESYWGQGTLVTVSA VL: DIVMTQSPATLSVTPGDRVSLSCRASQSISVYLHWYQQKSPESPRLLIKYASQSISGIPSRFSGSGSGSDFTLSINSVEPEDVGVYYCQNGHSFPFTFGSGTKLEIK
0.126 nM | 0.232 nM | 15C11 (antibody, V domains shown) VH: EVQLQQSGPVLVKPGASVKMSCKASGYTFTDYYMNWVKQSHGKSLEWIGVIIPYNGGTSYNQKFKGKATLTVDKSSSTAYMELNSLTSEDSAVYYCARDGHRWYFDVWGTGTTVTVSS VL: DVVMTQTPLSLPVSLGDQASISCRSSQSLVHSNGNTYLHWYLQKPGQSPKLLIYKVSNRFSGVPDRFSGSGSGTDFTLKINRVEAEDLGVYFCSQSTHVPYTFGGGTQLEIK
– | 8 nM | 43F5 (antibody, V domains shown) VH: EVQLQQSGPELVKPGASVKISCRASGYSFTGYYMNWVKQSPEKSLEWIGEIIPTTGGTSYNQKFKAKATLTVDKSSSTAYMQLKSLTSEDSAVYYCARESGGFYWYFDVWGTGTTVTVSS VL: DVVMTQSPLSLPVSLGDQASISCRSSQSLVHSNGNTYLHWYLLKPGQSPKLLIYKVSNRFSGVPDRFSGSGSGTDFTLKISRVEAEDLGVYFCSQSTHVPYTFGGGTKLEIK
0.336 nM | 0.027 nM and 0.025 nM | 34G3 (antibody, V domains shown) VH: EFQLQQSGPELVKPGASVKISCKASGYSFTDYNMNWVKQSKGKSLEWIGVIIPNYGFTSYNQNFKGKATLTVDQSSSTAHMQLNSVTSEDSAVYYCVRDGGILLWYLDVWGTGTTVTVSS VL: DVVMTQTPLSLPVSLGDQASISCRSSQSLVHSNGNTYLHWYLQKPGQSPKLLIYKVSNRFSGVPDRFSGSGSGTDFTLKISRVEAEDLGVYFCSQSTHVPYTFGGGTKLEIN
